This is an account of results in publication PMC11364024, “Binding structures of SERF1a with NT17-polyQ peptides of huntingtin exon 1 revealed by SEC-SWAXS, NMR and molecular simulation” (IUCrJ, 2024).

Data set [1] deals with T1, human small EDRK-rich factor 1a (SERF1a) (human).
T1 construct: source: purified from the human SERF1a gene as reported previously (Tsai et al., 2023)
T1 chain: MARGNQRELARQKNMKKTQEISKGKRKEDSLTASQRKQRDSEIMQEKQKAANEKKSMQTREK
Kind of data set: SEC-SWAXS (size-exclusion column with small- and wide-angle X-ray scattering, UV-Vis absorption and dRI); mixtures of SERF1a with NT17 or with Htt-3 at 1:2 molar ratio, eluted together; sodium phosphate buffer pH 7.4; 283 K; composition of the complex from I0, UV-Vis absorption at 214 nm and dRI over the elution peak. As to conditions: both partners purified.

Data set [2] concerns the molecule itself. Kind of data set: SEC-SWAXS (size-exclusion column with small- and wide-angle X-ray scattering, UV-Vis absorption and dRI); single-component samples (SERF1a 4.1 mg/ml; Htt-1 10 mg/ml injected, diluted ca. 2-4 fold on the column); sodium phosphate buffer pH 7.4; 283 K; aggregation number from zero-angle intensity I0 and the concentration from optical data.

B1: NT17 (the N-terminal first 17 amino acids of the Httex1 protein) (peptide)
peptide: MATLEKLMKAFESLKSF
notes: huntingtin exon 1 (Httex1), N-terminal first 17 amino acids; also called NT17 fragment; source: synthetic peptide (peptide synthesis core, Genomics Research Center, Academia Sinica)
For orientation: stoichiometry N means the number of molecules, sites or subunits per partner or assembly. Turning to B1, the “stoichiometry N” value in data set [1] is around 2 NT17 per SERF1a.

B2: Htt-1 (NT17-polyQ peptide of 33 amino acids with four leucines in the polyQ region) (peptide)
peptide: MATLEKLMKAFESLKSFLQQLQQQLQQLQQQYK
notes: huntingtin exon 1: NT17 followed by a 14-residue polyQ region in which four leucines replace the residues of position a/d to enhance alpha-helix formation; two C-terminal residues added after the polyQ region; not of huntingtin; source: synthetic peptide (peptide synthesis core, Genomics Research Center, Academia Sinica)
For B2, the “stoichiometry N” value in data set [2] was found to be 2.

B3: Htt-3 (NT17-polyQ peptide of 33 amino acids with four prolines in the polyQ region) (peptide)
peptide: MATLEKLMKAFESLKSFPQQPQQQPQQPQQQYK
notes: huntingtin exon 1: NT17 followed by a 14-residue polyQ region in which the positions a/d are substituted by four prolines to suppress alpha-helix formation; two C-terminal residues added after the polyQ region; not of huntingtin; source: synthetic peptide (peptide synthesis core, Genomics Research Center, Academia Sinica)
B3: the “stoichiometry N” value in data set [1] is around 1 Htt-3 per SERF1a.
